Assay [1] deals with cohesin tetramer (Smc1, Smc3, Scc1, Scc3) (S. cerevisiae) (UniProt P32908).
Assay [2] concerns the target T1, cohesin tetramer (Smc1, Smc3, Scc1, Scc3) (S. cerevisiae, UniProt P32908 1-1225; P47037 1-1230; Q12158 1-566; P40541 1-1150).
T1 construct: Smc1, S. cerevisiae, synthetic codon-optimised gene; Smc3, S. cerevisiae, synthetic codon-optimised gene; Scc1 (kleisin; Mcd1), S. cerevisiae, synthetic codon-optimised gene; Scc3, S. cerevisiae, synthetic codon-optimised gene; also called wild-type tetramers; source: Sf9, co-expressed (baculovirus), purified (StrepTrap, gel filtration); not shown: 2xStrepII, C-terminal, …
The assay is described as follows: co-IP; GFP-Scc2 held by anti-GFP antibody on Protein G Dynabeads; tetramers and GFP-Scc2 in an ATPase reaction, 25°C, 45 min, then beads 45 min at room temperature; washes with 100 mM NaCl; Coomassie-stained SDS-PAGE. Conditions: both partners purified.

Assay [3] concerns the target T2, cohesin tetramer with scc1Δ152–256 (Smc1, Smc3, Scc1Δ152-256, Scc3) (S. cerevisiae, UniProt P32908 1-1225; P47037 1-1230; Q12158 1-566; P40541 1-1150, Δ152-256).
T2 construct: Smc1, S. cerevisiae, synthetic codon-optimised gene; Smc3, S. cerevisiae, synthetic codon-optimised gene; Scc1 (kleisin; Mcd1), S. cerevisiae, synthetic codon-optimised gene; Scc3, S. cerevisiae, synthetic codon-optimised gene; source: Sf9, co-expressed (baculovirus), purified (StrepTrap, gel filtration); not shown: 2xStrepII, C-terminal, kept; copies: + + +
The description is as above. The conditions noted are these: both partners purified.

Two molecules from publication PMC6028919, “Scc2 Is a Potent Activator of Cohesin’s ATPase that Promotes Loading by Binding Scc1 without Pds5” (Molecular Cell, 2018) can be followed below.

T1 sequence (P32908 whole entry, chain 1 of 4): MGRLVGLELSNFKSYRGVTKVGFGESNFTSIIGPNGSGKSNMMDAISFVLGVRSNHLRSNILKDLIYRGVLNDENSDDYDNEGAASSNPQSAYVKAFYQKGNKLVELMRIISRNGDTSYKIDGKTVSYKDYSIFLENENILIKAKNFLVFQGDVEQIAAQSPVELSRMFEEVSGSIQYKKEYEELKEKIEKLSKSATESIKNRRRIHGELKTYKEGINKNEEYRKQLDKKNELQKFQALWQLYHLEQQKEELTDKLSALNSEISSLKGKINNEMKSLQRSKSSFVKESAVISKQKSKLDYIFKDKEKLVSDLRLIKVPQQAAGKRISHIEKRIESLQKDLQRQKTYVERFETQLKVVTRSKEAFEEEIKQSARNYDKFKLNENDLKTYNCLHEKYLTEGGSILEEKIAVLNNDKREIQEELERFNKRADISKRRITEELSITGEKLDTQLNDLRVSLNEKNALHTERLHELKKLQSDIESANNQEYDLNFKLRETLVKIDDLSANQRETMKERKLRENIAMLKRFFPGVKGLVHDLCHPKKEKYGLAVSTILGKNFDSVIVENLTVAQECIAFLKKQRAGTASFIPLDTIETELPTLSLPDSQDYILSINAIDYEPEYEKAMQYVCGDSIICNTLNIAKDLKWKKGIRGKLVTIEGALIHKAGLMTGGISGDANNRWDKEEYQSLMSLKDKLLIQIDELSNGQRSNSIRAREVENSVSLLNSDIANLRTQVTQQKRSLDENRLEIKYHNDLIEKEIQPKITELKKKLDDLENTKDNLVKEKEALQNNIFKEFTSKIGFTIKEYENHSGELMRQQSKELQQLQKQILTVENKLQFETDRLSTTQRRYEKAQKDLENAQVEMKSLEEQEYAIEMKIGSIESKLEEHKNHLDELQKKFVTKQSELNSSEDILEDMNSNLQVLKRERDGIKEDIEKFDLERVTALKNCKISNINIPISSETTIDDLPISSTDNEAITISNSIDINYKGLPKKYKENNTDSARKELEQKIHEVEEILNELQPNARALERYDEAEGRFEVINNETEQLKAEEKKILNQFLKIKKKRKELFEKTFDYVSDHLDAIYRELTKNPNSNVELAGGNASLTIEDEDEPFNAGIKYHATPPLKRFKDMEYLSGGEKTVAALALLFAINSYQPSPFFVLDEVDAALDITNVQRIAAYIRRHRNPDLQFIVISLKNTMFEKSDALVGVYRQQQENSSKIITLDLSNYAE
T1 sequence (P47037 whole entry, chain 2 of 4): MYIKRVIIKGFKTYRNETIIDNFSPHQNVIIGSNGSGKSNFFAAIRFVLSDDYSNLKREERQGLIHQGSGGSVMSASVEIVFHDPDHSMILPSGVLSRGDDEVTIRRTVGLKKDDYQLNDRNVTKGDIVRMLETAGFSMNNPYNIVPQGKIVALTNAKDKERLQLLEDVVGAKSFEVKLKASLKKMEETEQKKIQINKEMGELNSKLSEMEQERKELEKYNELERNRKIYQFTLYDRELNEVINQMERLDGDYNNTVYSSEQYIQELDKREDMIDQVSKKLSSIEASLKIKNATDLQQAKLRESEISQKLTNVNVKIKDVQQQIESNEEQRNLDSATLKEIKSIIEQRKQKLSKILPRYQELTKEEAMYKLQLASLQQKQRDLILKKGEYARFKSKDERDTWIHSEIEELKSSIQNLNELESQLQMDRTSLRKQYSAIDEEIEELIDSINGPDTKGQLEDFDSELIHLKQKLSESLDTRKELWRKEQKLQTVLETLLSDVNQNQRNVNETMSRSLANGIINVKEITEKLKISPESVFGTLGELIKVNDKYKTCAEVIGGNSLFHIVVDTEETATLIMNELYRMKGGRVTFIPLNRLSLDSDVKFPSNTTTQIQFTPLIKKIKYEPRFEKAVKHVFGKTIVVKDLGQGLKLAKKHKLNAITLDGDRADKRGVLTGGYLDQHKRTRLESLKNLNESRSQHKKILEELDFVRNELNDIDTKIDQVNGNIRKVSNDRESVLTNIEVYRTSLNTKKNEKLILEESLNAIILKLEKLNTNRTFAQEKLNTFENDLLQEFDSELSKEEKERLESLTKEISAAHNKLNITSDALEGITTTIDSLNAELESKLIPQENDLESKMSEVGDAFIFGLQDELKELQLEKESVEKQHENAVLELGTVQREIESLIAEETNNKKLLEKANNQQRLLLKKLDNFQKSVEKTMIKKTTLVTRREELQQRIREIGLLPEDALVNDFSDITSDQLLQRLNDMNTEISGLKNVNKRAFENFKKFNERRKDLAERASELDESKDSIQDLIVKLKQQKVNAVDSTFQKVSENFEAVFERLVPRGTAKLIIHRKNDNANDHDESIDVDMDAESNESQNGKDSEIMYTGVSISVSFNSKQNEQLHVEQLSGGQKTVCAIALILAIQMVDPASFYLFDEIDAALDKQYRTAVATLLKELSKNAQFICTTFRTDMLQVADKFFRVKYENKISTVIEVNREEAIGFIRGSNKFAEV
T1 sequence (Q12158 whole entry, chain 3 of 4): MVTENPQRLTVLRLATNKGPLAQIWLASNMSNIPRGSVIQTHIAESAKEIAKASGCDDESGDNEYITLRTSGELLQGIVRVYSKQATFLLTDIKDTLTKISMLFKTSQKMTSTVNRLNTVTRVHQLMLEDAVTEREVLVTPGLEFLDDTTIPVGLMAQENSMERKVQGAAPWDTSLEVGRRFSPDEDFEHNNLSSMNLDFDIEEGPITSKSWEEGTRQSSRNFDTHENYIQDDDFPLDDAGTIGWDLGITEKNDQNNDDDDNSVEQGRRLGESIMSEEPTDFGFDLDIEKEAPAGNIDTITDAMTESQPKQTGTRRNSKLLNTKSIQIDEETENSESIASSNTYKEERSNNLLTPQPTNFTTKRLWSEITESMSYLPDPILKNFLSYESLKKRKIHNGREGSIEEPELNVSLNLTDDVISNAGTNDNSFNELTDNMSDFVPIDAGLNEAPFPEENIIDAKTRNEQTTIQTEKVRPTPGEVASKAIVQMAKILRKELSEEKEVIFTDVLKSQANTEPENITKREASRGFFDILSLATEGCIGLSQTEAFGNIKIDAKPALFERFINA
T1 sequence (P40541 whole entry, chain 4 of 4): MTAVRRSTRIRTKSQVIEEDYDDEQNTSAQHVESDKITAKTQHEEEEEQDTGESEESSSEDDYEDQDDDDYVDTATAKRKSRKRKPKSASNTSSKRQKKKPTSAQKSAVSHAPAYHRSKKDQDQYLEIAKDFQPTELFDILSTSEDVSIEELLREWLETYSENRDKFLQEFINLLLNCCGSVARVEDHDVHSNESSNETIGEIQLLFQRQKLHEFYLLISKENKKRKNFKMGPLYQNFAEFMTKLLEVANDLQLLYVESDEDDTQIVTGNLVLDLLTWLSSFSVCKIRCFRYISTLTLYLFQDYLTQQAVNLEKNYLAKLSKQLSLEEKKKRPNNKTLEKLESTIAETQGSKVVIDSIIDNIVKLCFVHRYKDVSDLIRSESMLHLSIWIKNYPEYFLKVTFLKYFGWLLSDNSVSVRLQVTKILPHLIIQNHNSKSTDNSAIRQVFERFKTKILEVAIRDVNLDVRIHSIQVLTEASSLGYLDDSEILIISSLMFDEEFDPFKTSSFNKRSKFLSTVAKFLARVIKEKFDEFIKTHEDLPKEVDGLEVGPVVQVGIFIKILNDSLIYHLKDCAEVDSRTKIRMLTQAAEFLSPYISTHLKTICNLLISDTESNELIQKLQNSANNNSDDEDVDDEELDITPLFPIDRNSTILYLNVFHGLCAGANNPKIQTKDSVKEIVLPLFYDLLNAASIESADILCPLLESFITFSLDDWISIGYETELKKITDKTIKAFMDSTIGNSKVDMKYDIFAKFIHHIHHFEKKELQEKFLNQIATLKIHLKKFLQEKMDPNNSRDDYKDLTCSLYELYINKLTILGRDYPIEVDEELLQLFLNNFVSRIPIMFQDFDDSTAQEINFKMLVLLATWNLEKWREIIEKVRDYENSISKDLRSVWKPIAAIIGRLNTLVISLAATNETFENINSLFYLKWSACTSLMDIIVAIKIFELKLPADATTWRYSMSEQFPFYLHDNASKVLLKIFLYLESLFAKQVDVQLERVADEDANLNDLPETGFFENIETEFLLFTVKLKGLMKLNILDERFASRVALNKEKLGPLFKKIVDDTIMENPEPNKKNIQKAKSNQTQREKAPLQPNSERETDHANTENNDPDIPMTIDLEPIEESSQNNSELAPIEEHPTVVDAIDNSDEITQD

B1: His6-Pds5 (natural protein)
chain: MAKGAVTKLKFNSPIISTSDQLISTNELLDRLKALHEELASLDQDNTDLTGLDKYRDALVSRKLLKHKDVGIRAFTACCLSDILRLYAPDAPYTDAQLTDIFKLVLSQFEQLGDQENGYHIQQTYLITKLLEYRSIVLLADLPSSNNLLIELFHIFYDPNKSFPARLFNVIGGILGEVISEFDSVPLEVLRLIFNKFLTYNPNEIPEGLNVTSDCGYEVSLILCDTYSNRMSRHLTKYYSEIIHEATNDDNNSRLLTVVVKLHKLVLRLWETVPELINAVIGFIYHELSSENELFRKEATKLIGQILTSYSDLNFVSTHSDTFKAWISKIADISPDVRVEWTESIPQIIATREDISKELNQALAKTFIDSDPRVRRTSVMIFNKVPVTEIWKNITNKAIYTSLLHLAREKHKEVRELCINTMAKFYSNSLNEIERTYQNKEIWEIIDTIPSTLYNLYYINDLNINEQVDSVIFEYLLPFEPDNDKRVHRLLTVLSHFDKKAFTSFFAFNARQIKISFAISKYIDFSKFLNNQESMSSSQGPIVMNKYNQTLQWLASGLSDSTKAIDALETIKQFNDERIFYLLNACVTNDIPFLTFKNCYNELVSKLQTPGLFKKYNISTGASIMPRDIAKVIQILLFRASPIIYNVSNISVLLNLSNNSDAKQLDLKRRILDDISKVNPTLFKDQIRTLKTIIKDLDDPDAEKNDNLSLEEALKTLYKASKTLKDQVDFDDTFFFTKLYDFAVESKPEITKYATKLIALSPKAEETLKKIKIRILPLDLQKDKYFTSHIIVLMEIFKKFPHVLNDDSTDIISYLIKEVLLSNQVVGDSKKEIDWVEDSLLSDTKYSAIGNKVFTLKLFTNKLRSIAPDVPRDELAESFTEKTMKLFFYLIASGGELISEFNKEFYPTPSNYQTKLRCVAGIQVLKLARISNLNNFIKPSDIIKLINLVEDESLPVRKTFLEQLKDYVANELISIKFLPLVFFTAYEPDVELKTTTKIWINFTFGLKSFKKGTIFERALPRLIHAIAHHPDIVGGLDSEGDAYLNALTTAIDYLLFYFDSIAAQENFSLLYYLSERVKNYQDKLVEDEIDEEEGPQKEEAPKKHRPYGQKMYIIGELSQMILLNLKEKKNWQHSAYPGKLNLPSDLFKPFATVQEAQLSFKTYIPESLTEKIQNNIKAKIGRILHTSQTQRQRLQKRLLAHENNESQKKKKKVHHARSQADDEEGDGDRESDSDDDSYSPSNKNETKKGHENIVMKKLRVRKEVDYKDDEDDDIEMT
For B1, in assay [1], the Scc2-stimulated ATPase activity of cohesin tetramers with a three-fold molar excess of Pds5, in the absence of DNA came to 2 fold.

B2: GFP-ΔN132-Scc2-1xStrepII (domain or fragment, S. cerevisiae, UniProt Q04002 133-1493, looked up)
chain: KSEIVSRPEAKHKLESVTSNAGNLSFNDNSSNKKTKTSTGVTMTQANLAEQYLNDLKNILDIVGFDQNSAEIGNIEYWLQLPNKKFVLTTNCLTKLQMTIKNITDNPQLSNSIEITWLLRLLDVMVCNIKFSKSSLKMGLDDSMLRYIALLSTIVLFNIFLLGKNDSNLHRESYIMEPVNFLSDLIESLKILTIEYGSLKIEFDTFQEALELLPKYIRNGPFLDDNVTAKLVYIFSDLLMNNDIEATTNIQFQSFWDNVKRISSDILVSLFGSFDQQRGFIIEELLSHIEKLPTKRIQKKLRKVGNQNIYITDFTFTLMSMLENINCYSFCNQMKDIAPENIDLLKNEYKKQEEFLFNIVEHINDTILERFFKNPSALRYVIDNFVQDLLLLISSPQWPVTEKILSSLLKRLLSVYSPSMQVSANIETICLQLIGNIGSTIFDIKCSTRDHEDNNLIKMINYPETLPHFFKSFEECIAYNETIKCRRSATRFLWNLRLGTILILEEYTKDAKEQIITVDNELKKILEQIKDGGLGPELENREADFSTIKLDYFSILHAFELLNLYDPYLKLILSLLAKDKIKLRSTAIKCLSMLASKDKVILSNPMVKETIHRRLNDSSASVKDAILDLVSINSSYFEFYQQINNNYNDDSIMVRKHVLRINEKMYDETNDIVTKVYVIARILMKIEDEEDNIIDMARLILLNRWILKVHEVLDQPEKLKEISSSVLLVMSRVAIMNEKCSQLFDLFLNFYLLNKEAHSKEAYDKITHVLTILTDFLVQKIVELNSDDTNEKNSIVDKQNFLNLLAKFADSTVSFLTKDHITALYPYMVSDEKSDFHYYILQVFRCTFEKLANFKQKFLYDLETTLLSRLPKMNVREIDEAMPLIWSVATHRHDTARVAKACSSCLSHLHPYINKANNEEAAIVVDGKLQRLIYLSTGFARFCFPKPSNDKIAFLQEGETLYEHITKCLLVLSKDKITHVIRRVAVKNLTKLCGNHPKLFNSRHVLHLLDKEFQSDQLDIKLVILESLYDLFLLEERKSVRNTGVNSTLSSNSILKKKLLKTNRVEFANDGVCSALATRFLDNILQLCLLRDLKNSLVAIRLLKLILKFGYTNPSHSIPTVIALFASTSQYIRHVAYELLEDLFEKYETLVFSSLSRGVTKAIHYSIHTDEKYYYKHDHFLSLLEKLCGTGKKNGPKFFKVLKRIMQSYLDDITDLTSTNSSVQKSIFVLCTNISNITFVSQYDLVSLLKTIDLTTDRLKEVIMDEIGDNVSSLSVSEEKLSGIILIQLSLQDLGTYLLHLYGLRDDVLLLDIVEESELKNKQLPAKKPDISKFSAQLENIEQYSSNGKLLTYFRKHVKDT
notes: Scc2, S. cerevisiae, synthetic codon-optimised gene; also called GFP-Scc2; Scc2-GFP; source: Sf9, baculovirus, purified (StrepTrap, gel filtration); not shown: GFP, N-terminal, kept; StrepII, C-terminal, kept
Consider B2, for which the binding result in assay [2] and in assay [3] was “binds” throughout.
